T1: monkey C5-mmh (monkey, UniProt P01031 19-1676 (human entry), limits assumed)
T1 construct: Recombinant monkey C5 with a C-terminal myc-myc-hexahistidine tag
T1 chain: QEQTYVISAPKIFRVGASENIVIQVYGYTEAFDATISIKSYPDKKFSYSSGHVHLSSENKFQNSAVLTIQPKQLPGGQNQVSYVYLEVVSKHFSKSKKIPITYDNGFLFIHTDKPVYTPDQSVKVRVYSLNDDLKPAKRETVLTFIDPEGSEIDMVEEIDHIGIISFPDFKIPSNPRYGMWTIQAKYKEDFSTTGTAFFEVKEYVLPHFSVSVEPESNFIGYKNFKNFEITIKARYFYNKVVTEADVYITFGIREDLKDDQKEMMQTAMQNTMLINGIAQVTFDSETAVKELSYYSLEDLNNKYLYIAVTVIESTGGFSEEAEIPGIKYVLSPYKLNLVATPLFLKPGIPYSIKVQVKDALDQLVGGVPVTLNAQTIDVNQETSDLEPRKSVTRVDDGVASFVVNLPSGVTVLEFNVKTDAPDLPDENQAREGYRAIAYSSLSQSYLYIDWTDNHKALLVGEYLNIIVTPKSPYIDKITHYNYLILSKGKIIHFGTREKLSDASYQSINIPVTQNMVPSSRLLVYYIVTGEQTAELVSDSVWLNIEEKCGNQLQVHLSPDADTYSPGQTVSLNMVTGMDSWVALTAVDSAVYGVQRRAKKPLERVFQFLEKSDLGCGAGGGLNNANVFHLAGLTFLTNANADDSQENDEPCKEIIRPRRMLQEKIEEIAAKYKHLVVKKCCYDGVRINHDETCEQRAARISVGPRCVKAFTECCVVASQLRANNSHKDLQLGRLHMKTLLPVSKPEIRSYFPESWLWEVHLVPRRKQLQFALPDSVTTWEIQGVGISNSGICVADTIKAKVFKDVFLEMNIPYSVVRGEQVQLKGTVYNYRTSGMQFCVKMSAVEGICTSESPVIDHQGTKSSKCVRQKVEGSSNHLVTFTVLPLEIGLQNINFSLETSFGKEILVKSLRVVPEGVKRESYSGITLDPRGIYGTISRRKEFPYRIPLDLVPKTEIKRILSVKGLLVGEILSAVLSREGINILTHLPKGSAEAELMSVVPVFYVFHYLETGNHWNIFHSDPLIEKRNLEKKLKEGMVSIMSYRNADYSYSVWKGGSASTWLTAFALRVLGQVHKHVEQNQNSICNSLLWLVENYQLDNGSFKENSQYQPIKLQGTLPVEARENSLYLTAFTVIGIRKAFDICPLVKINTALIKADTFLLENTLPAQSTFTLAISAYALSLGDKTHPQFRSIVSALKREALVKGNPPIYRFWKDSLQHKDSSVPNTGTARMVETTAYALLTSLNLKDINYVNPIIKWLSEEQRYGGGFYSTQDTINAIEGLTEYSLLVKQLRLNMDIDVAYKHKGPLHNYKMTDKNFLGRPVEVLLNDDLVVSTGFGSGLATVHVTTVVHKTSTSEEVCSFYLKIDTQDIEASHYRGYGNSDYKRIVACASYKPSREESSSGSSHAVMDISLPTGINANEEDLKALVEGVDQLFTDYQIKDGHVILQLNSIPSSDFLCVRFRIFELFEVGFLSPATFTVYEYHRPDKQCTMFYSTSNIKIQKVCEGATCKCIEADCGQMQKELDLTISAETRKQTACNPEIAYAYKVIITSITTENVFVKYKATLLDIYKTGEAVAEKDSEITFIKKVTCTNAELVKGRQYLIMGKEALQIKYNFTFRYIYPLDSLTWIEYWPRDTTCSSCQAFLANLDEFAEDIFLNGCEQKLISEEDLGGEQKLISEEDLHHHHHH


Experiments:
Cynomolgus monkey C5 = Cynomolgus monkey C5 (cynomolgus monkey, UniProt A0A2K5U1T1 19-1676); experiment: cell-based or functional assay
African green monkey C5 = African green monkey C5 (African green monkey); experiment: cell-based or functional assay
human C5 R885H-mmh [1] = molecular target: T2, human C5 R885H-mmh (human, UniProt P01031 19-1676); experiment: SPR, mAb captured via anti-hFc, 37C
T2 construct: also called human C5 variant R885H
Procedure: (§1) Equilibrium dissociation constants (KD values) for C5 binding to purified anti-C5 antibodies were determined using a real-time surface plasmon resonance biosensor assay on a Biacore T200 instrument. The Biacore sensor surface was derivatized by amine coupling with a monoclonal mouse anti-human Fc antibody (GE Healthcare, # BR-1008-39) to capture anti-C5 antibodies expressed with human Fc constant regions. Biacore binding studies were conducted in HBST running buffer (0.01M HEPES pH 7.4, 0.15M NaCl, 3 mM EDTA, 0.05% v/v Surfactant P20).
(§2) Human C5 was obtained from a commercial source (EMD). Other C5 reagents were expressed with a C-terminal myc-myc-hexahistidine tag (subsequently referred to as C5-mmh). […] Association of all the C5 reagents to each of the captured monoclonal antibodies was monitored for 3 minutes and their dissociation in HBST running buffer was monitored for 8 minutes. All the binding kinetics experiments were performed at either 25° C. or 37° C. Kinetic association (kₐ) and dissociation (kd) rate constants were determined by fitting the real-time sensorgrams to a 1:1 binding model using Scrubber 2.0c curve fitting software. Binding dissociation equilibrium constants (KD) and dissociative half-lives (t %) were calculated from the kinetic rate constants as: KD (M)=kd/kₐ and t_{1/2} (min)=In2/(60×kd)

monkey C5-mmh = molecular target: T1, monkey C5-mmh; experiment: SPR, mAb captured via anti-hFc, 37C
Procedure: as §1, §2

human C5 R885C-mmh [2] = molecular target: T3, human C5 R885C-mmh (human, UniProt P01031 19-1676); experiment: SPR, mAb captured via anti-hFc, 37C
T3 construct: also called human C5 variant R885C
Procedure: as §1, §2

human C5 R885H-mmh [3] = molecular target: T2, human C5 R885H-mmh; experiment: SPR, mAb captured via anti-hFc, 25C
Procedure: as §1, §2

human C5 R885C-mmh [4] = molecular target: T3, human C5 R885C-mmh; experiment: SPR, mAb captured via anti-hFc, 25C
Procedure: as §1, §2

Binder	100 nM Human C5 R885H-mmh Bound (RU) (human C5 R885H-mmh [1])	Kd (human C5 R885H-mmh [1]) [nM]	koff (human C5 R885H-mmh [1]) [s⁻¹]	kon (human C5 R885H-mmh [1]) [M⁻¹ s⁻¹]	t1/2 (human C5 R885H-mmh [1]) [min]	100 nM monkey C5-mmh Bound (RU) (monkey C5-mmh)	Kd (monkey C5-mmh) [nM]	koff (monkey C5-mmh) [s⁻¹]	kon (monkey C5-mmh) [M⁻¹ s⁻¹]	t1/2 (monkey C5-mmh) [min]	100 nM Human C5 R885C-mmh Bound (RU) (human C5 R885C-mmh [2])	Kd (human C5 R885C-mmh [2]) [nM]	koff (human C5 R885C-mmh [2]) [s⁻¹]	kon (human C5 R885C-mmh [2]) [M⁻¹ s⁻¹]	t1/2 (human C5 R885C-mmh [2]) [min]	100 nM Human C5 R885H-mmh Bound (RU) (human C5 R885H-mmh [3])	Kd (human C5 R885H-mmh [3]) [nM]	koff (human C5 R885H-mmh [3]) [s⁻¹]	kon (human C5 R885H-mmh [3]) [M⁻¹ s⁻¹]	t1/2 (human C5 R885H-mmh [3]) [min]	also measured
H4H12166P (antibody, V domains shown) VH: QVQLQESGPGLVKPSETLSLTCTVSGDSVSSSYWTWIRQPPGKGLEWIGYIYYSGSSNYNPSLKSRATISVDTSKNQFSLKLSSVTAADTAVYYCAREGNVDTTMIFDYWGQGTLVTVSS VL: AIQMTQSPSSLSASVGDRVTITCRASQGIRNDLGWYQQKPGKAPKLLIYAASSLQSGVPSRFAGRGSGTDFTLTISSLQPEDFATYYCLQDFNYPWTFGQGTKVEIK																					Cyno AP % Max Inhibition, hemolysis assay, 5% serum (Cynomolgus monkey C5): 98.6%; Cyno CP % Max Inhibition, hemolysis assay, 5% serum (Cynomolgus monkey C5): 94.2%; Cyno Serum AP IC50, hemolysis assay, 5% serum (Cynomolgus monkey C5): 8.85 nM; Cyno Serum CP IC50, hemolysis assay, 5% serum (Cynomolgus monkey C5): 20.1 nM; AGM AP % Max Inhibition, hemolysis assay, 5% serum (African green monkey C5): 44.2%; AGM CP % Max Inhibition, hemolysis assay, 5% serum (African green monkey C5): 81%; AGM Serum AP IC50, hemolysis assay, 5% serum (African green monkey C5): 233 nM
H4H12161P (antibody, human IgG4, V domains shown, Human IgG4 Fc with S108P hinge mutation (H4H)) VH: EVQLVESGGDLVQPGGSLRLSCAASGFTFSDHYMDWVRQAPGKGLDWIGRIRNKANAYNTEYAASVRGRFTISRDDSQNLLYLQMNSLKTDDTAVYYCVRVWNYAYFAMDVWGQGTTVTVSS VL: DIQMTQSPSSLSASVGDRVTITCRSSQNIGIFLNWYQQKPGEAPNLLISAASSLHSGVPSRFSGSGSGTDFTLTIGSLQPEDFATYYCQQTYNTIFTFGPGTKVDIK	54	7.84	0.000925	118000	12	53	5.56	0.000745	134000	16	49	8.17	0.000901	110000	13	199	0.996	8.32e-05	83600	139	100 nM Human C5 R885C-mmh Bound (RU) (human C5 R885C-mmh [4]): 147 RU; Kd (human C5 R885C-mmh [4]): 0.672 nM; koff (human C5 R885C-mmh [4]): 8.71e-05 s⁻¹; kon (human C5 R885C-mmh [4]): 130000 M⁻¹ s⁻¹; t1/2 (human C5 R885C-mmh [4]): 133 min

Further binders by falling Kd (human C5 R885H-mmh [1]), results first:

100 nM Human C5 R885H-mmh Bound (RU) (human C5 R885H-mmh [1])	Kd (human C5 R885H-mmh [1]) [nM]	koff (human C5 R885H-mmh [1]) [s⁻¹]	kon (human C5 R885H-mmh [1]) [M⁻¹ s⁻¹]	t1/2 (human C5 R885H-mmh [1]) [min]	100 nM monkey C5-mmh Bound (RU) (monkey C5-mmh)	Kd (monkey C5-mmh) [nM]	koff (monkey C5-mmh) [s⁻¹]	kon (monkey C5-mmh) [M⁻¹ s⁻¹]	t1/2 (monkey C5-mmh) [min]	100 nM Human C5 R885C-mmh Bound (RU) (human C5 R885C-mmh [2])	Kd (human C5 R885C-mmh [2]) [nM]	koff (human C5 R885C-mmh [2]) [s⁻¹]	kon (human C5 R885C-mmh [2]) [M⁻¹ s⁻¹]	t1/2 (human C5 R885C-mmh [2]) [min]	100 nM Human C5 R885H-mmh Bound (RU) (human C5 R885H-mmh [3])	Kd (human C5 R885H-mmh [3]) [nM]	koff (human C5 R885H-mmh [3]) [s⁻¹]	kon (human C5 R885H-mmh [3]) [M⁻¹ s⁻¹]	t1/2 (human C5 R885H-mmh [3]) [min]	Binder	also measured
36	7.43	0.000712	95800	16	13	118	0.00637	54000	2	25	19.5	0.000997	51200	12	99	1.16	4.37e-05	37700	264	H4H12183P2 (antibody, human IgG4, V domains shown, Human IgG4 Fc with S108P hinge mutation (H4H)) VH: QVQLQESGPALVKPSQTLSLTCTVSGGSIIRGSTYWSWVRQFPGKGLEWIGYSYYSGTAYYNPSLESRATISVDTSKNQFSLNLKSVTAADTAVYYCTREIGVAGLFDIWGQGTLVTVSS VL: not shown	100 nM Human C5 R885C-mmh Bound (RU) (human C5 R885C-mmh [4]): 80 RU; Kd (human C5 R885C-mmh [4]): 0.737 nM; koff (human C5 R885C-mmh [4]): 2.2e-05 s⁻¹; kon (human C5 R885C-mmh [4]): 29900 M⁻¹ s⁻¹; t1/2 (human C5 R885C-mmh [4]): 525 min
69	3.73	0.000958	257000	12	47	9.6	0.00129	135000	9	55	7.32	0.00103	141000	11	65	1.22	0.000217	178000	53	H4H12176P2 (antibody, human IgG4, V domains shown, Human IgG4 Fc with S108P hinge mutation (H4H)) VH: EVQLVESGGGLVQPGGSLRLSCAASGFHSNRYWMDWVRQAPGKGLEWVANIKQDGSEENYVDSVKGRFTISRDNAKNSLYLQMNSLRAEDTAVYYCARDRSTSWVPYWFFDLWGRGTLVTVSS VL: not shown	100 nM Human C5 R885C-mmh Bound (RU) (human C5 R885C-mmh [4]): 63 RU; Kd (human C5 R885C-mmh [4]): 2.03 nM; koff (human C5 R885C-mmh [4]): 0.000218 s⁻¹; kon (human C5 R885C-mmh [4]): 107000 M⁻¹ s⁻¹; t1/2 (human C5 R885C-mmh [4]): 53 min
79	1.72	0.000739	429000	16	64	14.3	0.00361	251000	3	75	2.24	0.000737	329000	16	173	0.147	7.09e-05	484000	163	H4H12169P (antibody, human IgG4, V domains shown, Human IgG4 Fc with S108P hinge mutation (H4H)) VH: EVQLVESGGGLAQPGGSLRLSCAASGFTFRSYAMSWVRQAPGKGPEWVSGIGGNGVTTYYADSVKGRFTISRDNSKNTLFLQMNSLRAEDTAVYYCVQGGLGGYFTGYWGQGTLVTVSS VL: DIQMTQSPSSLSASVGDRVTITCRASQSISTYLNWYQQNPGKAPKLLIFDASSLQSGVPSRFSGSGSGTDFTLTIRGLQPEDFATYYCQQSYSAPLTFGGGTKVEIK	100 nM Human C5 R885C-mmh Bound (RU) (human C5 R885C-mmh [4]): 168 RU; Kd (human C5 R885C-mmh [4]): 0.251 nM; koff (human C5 R885C-mmh [4]): 6.99e-05 s⁻¹; kon (human C5 R885C-mmh [4]): 278000 M⁻¹ s⁻¹; t1/2 (human C5 R885C-mmh [4]): 165 min
